Earlier results as cited in paper PMC4351059.

Target: Cys215 (UniProt position 215, PVVVHCSAGIG)
Details: not stated (reduced free enzyme implied)

Protein-tyrosine phosphatase 1B (PTP1B) (Homo sapiens (as described in this article; the cited source title says 'mammalian protein-tyrosine-phosphatase PTP1'))
pKa: 5.6
